Data set [1] concerns the target prion-like domain (PLD) of human TDP-43 (TDP-43 274-414), unmodified (human) (UniProt Q13148). Put plainly: cell-based or functional assay.
Data set [2] shares this target. Put plainly: 15N CPMG relaxation dispersion, 200 µM PLD, region 321-343; self-assembly.
Data set [3] deals with the molecule itself. Put plainly: cell-based or functional assay.

Here are results for 2 molecules from patent EP4389215A1 (Consejo Superior De Investigaciones Científicas, dated 2024).

In data set [1], “prion-like domain (PLD) of human TDP-43 (TDP-43 274-414), unmodified (from UniProt Q13148 274-414)” yielded a t1/2 (h) of ThT aggregation, 10 µM PLD monomer, 0 % PLD seeds of 4.87 h; a t1/2 (h) of ThT aggregation, 10 µM PLD monomer, 0.1 % PLD seeds of 4.99 h; a t1/2 (h) of ThT aggregation, 10 µM PLD monomer, 0.5 % PLD seeds of 2.88 h; a t1/2 (h) of ThT aggregation, 10 µM PLD monomer, 1 % PLD seeds of 2.86 h. For the same molecule, in data set [2], the kex (exchange rate, 15N CPMG) is > 2000 s⁻¹.

B1: MetO PLD (MetO-PLD polypeptide of the invention; SEQ ID NO: 2 with oxidized methionine residues) (other)
chain: GRFGGNPGGFGNQGGFGNSRGGGAGLGNNQGSNMGGGMNFGAFSINPAMMAAAQAALQSSWGMMGMLASQQNQSGPSGNNQNQGNMQREPNQAFGSGNNSYSGSNSGAAIGWGSASNAGSGSGFNGGFGSSMDSKSSGWGM
modifications: methionine sulfoxide at all Met residues (M307, M311, M322, M323, M336, M337, M339, M359, M405, M414, numbered on full human TDP-43, SEQ ID NO: 3); full MetO validated by mass spectrometry and NMR (M414 not detected by MS)
For the molecule B1, in data set [3], the “t1/2 (h) of ThT aggregation, 10 µM MetO PLD monomer, 0 % MetO PLD seeds” value was determined as 54.9 h; the “t1/2 (h) of ThT aggregation, 10 µM MetO PLD monomer, 0.1 % MetO PLD seeds” value came out at 38.3 h; the “t1/2 (h) of ThT aggregation, 10 µM MetO PLD monomer, 0.5 % MetO PLD seeds” value came to 18.7 h; the “t1/2 (h) of ThT aggregation, 10 µM MetO PLD monomer, 1 % MetO PLD seeds” value came out at 18 h.
